According to US20250215091A1, “Anti-GAL3 Antibodies and Compositions” (Les Laboratoires Servier, priority 2022, published 2025):

What was measured:
murine Gal3 (m-Gal3-FL) = biological target: T1, murine Gal3 (m-Gal3-FL) (Mus musculus, UniProt P16110); assay: IgG cross-reactivity ELISA on murine Gal3; assay type: binding; conditions: purified IgGs 15-20 μg/mL; FIG. 3
T1 construct: Determination of Kd values on human and mouse full-length Gal3; purchased Novalix
Method: Anti-Gal3 antibodies human/mouse cross-reactivity was tested by ELISA on human Gal3 full-length (Hu-Gal3-FL) and CRD domain (Hu-Gal3-CRD), and on murine Gal3 (m-Gal3-FL).
Hu-Gal3-FL, Hu-Gal3-CRD and m-Gal3-FL were immobilized at 3 μg/mL via their histidine tag on functionalized microplates. Purified IgGs were added into the wells (15-20 μg/mL final concentration) and detected with an anti-Fab.HRP antibody. A control rabbit antibody directed against Hu-Gal3 (Abcam ab53082 reference) was used at 5 μg/mL as antigen-coating positive control and detected with an anti-rabbit.HRP secondary antibody (7074S-Cell Signaling reference).

Hu-Gal3-FL = biological target: T2, Hu-Gal3-FL (Homo sapiens, UniProt P17931); assay: ELISA dose-response EC50 on human Gal3; conditions: ELISA binding on Hu-Gal3-FL
T2 construct: made in house
Method: (§1) To determine the half maximal effective concentration (EC50) of the antibodies, ELISA dose-response experiments were performed on Hu-Gal3-FL and on m-Gal3-FL.
(§2) Hu-Gal3-FL and m-Gal3-FL were immobilized at 3 μg/mL through their His-tag on functionalized microplates as before. A 3.3-fold serial dilution was carried-out with the purified IgGs, added to the wells containing immobilized Hu-Gal3-FL or m-Gal3-FL and detected with an anti-Fab.HRP antibody.
(§3) Human/mouse Gal3 EC50 ratio were estimated according to EC50 values (sigmoidal dose-response equation: Y=Bottom+X*(Top−Bottom)/(EC50+X)), a low ratio indicating a high cross-reactivity.

m-Gal3-FL = biological target: T3, m-Gal3-FL (Mus musculus, UniProt P16110); assay: ELISA dose-response EC50 on mouse Gal3; conditions: ELISA binding on m-Gal3-FL
T3 construct: made in house
Method: as §1, §2, §3

[1] = tested on: murine model of HOCI-induced fibrosis; assay: HOCI-induced murine fibrosis model: skin thickness; assay type: in vivo, mice; conditions: first experiment
Method: (§4) In a first experiment, control mice (n=12) received a daily intradermal injection of 300 μL of sterile phosphate buffer saline (PBS) for 5 consecutive days per week, for a duration of 42 days. HOCI alone and HOCI with antibody (HOCI-antibody) treated mice (n=12 per group) received a daily intradermal injection of 300 μL of HOCI for 5 consecutive days per week, for a duration of 42 days. Antibody-treated mice also received a subcutaneous injection of 20 mg/kg antibody, starting at day minus one and every 5 days between day 5 and day 40. Each antibody was solubilized in sterile, endotoxin-free PBS before injection. In a second experiment, the same protocol was applied, except that duration of the study was 63 days and antibodies were given every 7 days starting at day minus 1 until day 62.
(§5) Mice that received daily injection of HOCI were also treated by intratracheal instillation of 0.5 mg/kg of TD139 compound (HOCI-TD139), a small molecule Gal3 inhibitor. In a first experiment, the administrations started from day 21 and the compound was given every 3 days until day 39. In a second experiment, the administrations started from day 20 and the compound was given every 3 days until day 62. TD139 was initially dissolved in 100% DMSO then diluted 50-fold in endotoxin-free PBS before administration.
The evolution of skin thickness was monitored by using an external caliper, every seven days until sacrifice.

[2] = tested on: murine model of HOCI-induced fibrosis; assay: HOCI-induced murine fibrosis model: skin and lung collagen (Picrosirius red); assay type: in vivo, mice; conditions: first experiment
Method: as §4, §5
At the day of study termination of the first experiment (day 42), skin and lung samples were taken, formalin-fixed and processed to individual paraffin wax blocks. Sections of skin and lung were cut from the blocks and, after rehydration, stained with Picrosirius Red coloration according to the manufacturer's protocol. Subsequently, each slide was examined and remotely analyzed employing the web-based Image J software

plasma IL-6 = assay: HOCI-induced murine fibrosis model: plasma IL-6 (MSD); assay type: in vivo, mice; conditions: first experiment, day 42; vs HOCI group; FIG. 9
Method: as §4, §5
(§6) In the first experiment, a mixed effect model with repeated measurements was performed on Control group, HOCI treated group, HOCI-antibody- and HOCI-TD139-treated groups. The impact of HOCI administration on plasma IL-6 and IL-5 levels was evaluated compared to the control group. The impact of antibody and TD139 treatments was compared to the HOCI group (FIG. 9). IL-6 and IL-5 were quantified by using the MSD technology from Mesoscale.

plasma IL-5 = assay: HOCI-induced murine fibrosis model: plasma IL-5 (MSD); assay type: in vivo, mice; conditions: first experiment, day 42; vs HOCI group; FIG. 9
Method: as §4, §5, §6

plasma Gal3 = assay: HOCI-induced murine fibrosis model: plasma Gal3 (ELISA); assay type: in vivo, mice; conditions: first experiment, day 42; FIG. 10
Method: as §4, §5
In the first experiment, the plasma levels of Gal3 were measured at day minus 1 (before antibody administration) and at termination day (day 42) using a mouse Galectin-3 DuoSet ELISA kit (R&D Systems, DY1197) according to the manufacturer's instructions. Plasma samples were diluted 1:200 in order to fit with the dynamic range of the assay.

[3] = tested on: murine model of bleomycin-induced fibrosis; assay: Bleomycin-induced murine lung fibrosis model: body weight and body weight metrics; assay type: in vivo, mice
Method: (§7) Control bleomycin mice named ‘Bleo’ received an administration of 1.65 mg/kg bleomycin by the oropharyngeal route on Day 1. […] Antibody-treated mice also received an administration of 1.65 mg/kg bleomycin by the oropharyngeal route on Day 1 and a subcutaneous injection of 20 mg/kg antibody, starting on day minus one and on days 4, 8, 12, 16 and 20. Each antibody was solubilized in sterile, endotoxin-free PBS before injection. Mice that received bleomycin were also treated by oropharyngeal administration of 0.5 mg/kg of TD139 compound (Bleo-TD139), a small molecule Gal3 inhibitor, starting on day 12 and every 2 days until day 20. TD139 was initially dissolved in 100% DMSO.
Mice were weighed daily. Their growth curves are represented on FIG. 12. Control mice had normal growth with a mean percent increase of 6.4% of their initial body weight measured on day minus 1.
Body weight metrics were assessed by using two parameters called Time to weight growth (TWG) and Time to baseline (TTB), shown on FIG. 13. Time to weight growth corresponds to the point of inflection when mice show an ascending growth curve and start to regain weight within the course of the experiment. Time to baseline corresponds to the number of days required for mice to recover their initial body weight (day minus 1). The median TWG was 10 days for the untreated bleomycin group. […] TD139 compound had no efficacy on this parameter (p-value 0.53).

[4] = tested on: murine model of bleomycin-induced fibrosis; assay: Bleomycin-induced murine lung fibrosis model: Modified Ashcroft fibrosis score; assay type: in vivo, mice
Method: as §7
Mice were submitted for terminal euthanasia on day 21. The lungs were collected for histopathological examination and gravity inflation-fixed with 10% neutral buffered formalin (NBF) before being immersion fixed in NBF.
Sections were taken and then placed on three slides as indicated by the code numbers on FIG. 14.
Three longitudinal sections parallel to and bisecting the main stem bronchus were trimmed from the left lung and right caudal lung lobes and mounted in cassettes 01 and 02, respectively. The right cranial, middle and accessory lung lobes were sectioned longitudinally and mounted in cassette 03. All sections were stained with picrosirius red and scored in a blinded manner by a certified veterinary pathologist using the Modified Ashcroft fibrosis score (0-8), where “0” corresponds to “normality (no fibrosis) and “8” corresponds to the highest possible fibrosis score, as described by Hübner et al. (2008) but based on assessment across the whole section of lung.

rat model of ARDS [5] = assay: Rat ARDS model (LPS challenge): neutrophils counts in BALF; assay type: in vivo; conditions: antibodies 14 mg/kg x3 prior to LPS; dexamethasone 10 mg/kg oral; vs LPS group; FIG. 16
Method: (§8) Positive control rats received 3 doses of sterile phosphate buffer at day minus 11, minus 6 and minus 1 prior LPS challenge (0.25 mg/kg by subcutaneous route at day 1). Negative control rats received one oral dose of Dexamethasone at 10 mg/kg (dissolved in 0.5% carboxymethyl cellulose in deionized water) 2 hours prior LPS challenge (0.25 mg/kg by subcutaneous route at day 1). LPS (lipopolysaccharide) causes an acute inflammatory response, whereas dexamethasone has anti-inflammatory effects thus being the reference treatment in this model.
(§9) Antibody-treated rats received 3 doses of antibodies (14 mg/kg) at day minus 11, minus 6 and minus 1 prior to LPS challenge (0.25 mg/kg by subcutaneous route at day 1). Each antibody was solubilized in sterile PBS before injection.
(§10) Control rats of the experiment received 3 doses of sterile phosphate buffer at day minus 11, minus 6 and minus 1 without LPS challenge at day 1.
The impact of anti-Gal3 antibody treatment in LPS challenged rats were evaluated by quantification of neutrophils in Bronchoalveolar Lavage Fluid and compared to the positive control group (LPS challenge with PBS treatment) (FIG. 16). […] Neutrophils numeration levels were decreased after treatment with anti-inflammatory dexamethasone.

rat model of ARDS [6] = assay: Rat ARDS model (LPS challenge): total BALF protein (BCA assay); assay type: in vivo; conditions: antibodies 14 mg/kg x3 prior to LPS; dexamethasone 10 mg/kg oral; vs LPS group; FIG. 17
Method: as §8, §9, §10
The impact of anti-Gal3 antibody treatment in LPS challenged rats were evaluated by quantification of proteins (by BCA assay) in BALF and compared to the positive control group (LPS challenge with PBS treatment) (FIG. 17). The presence of protein in BALF reflects the damage to the air-blood barrier. […] Total BALF protein numeration levels were decreased after treatment with anti-inflammatory dexamethasone.

plasma TNF alpha = assay: Rat ARDS model (LPS challenge): plasma TNF alpha (MSD); assay type: in vivo; conditions: 4 h following LPS challenge; vs LPS group; FIG. 18
Method: as §8, §9, §10
For all rats, plasma sampling was performed 4 h following LPS challenge.
The impact of anti-Gal3 antibody treatment in LPS challenged rats were evaluated on plasma cytokine levels, namely TNF alpha and KC-GRO cytokines, and compared to the positive control group (LPS challenge with PBS treatment) (respectively FIG. 18A and FIG. 18B). TNF alpha and KC-GRO were quantified by using the MSD technology from Mesoscale.

T2 sequence (P17931 whole entry): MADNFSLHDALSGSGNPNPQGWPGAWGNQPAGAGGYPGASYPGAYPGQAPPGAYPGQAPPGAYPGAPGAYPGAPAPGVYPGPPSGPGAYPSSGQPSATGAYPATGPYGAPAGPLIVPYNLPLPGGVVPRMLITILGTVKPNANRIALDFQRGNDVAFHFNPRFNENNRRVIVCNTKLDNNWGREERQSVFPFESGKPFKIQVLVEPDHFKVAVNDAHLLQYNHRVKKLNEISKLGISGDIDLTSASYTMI
T1 sequence (P16110 whole entry): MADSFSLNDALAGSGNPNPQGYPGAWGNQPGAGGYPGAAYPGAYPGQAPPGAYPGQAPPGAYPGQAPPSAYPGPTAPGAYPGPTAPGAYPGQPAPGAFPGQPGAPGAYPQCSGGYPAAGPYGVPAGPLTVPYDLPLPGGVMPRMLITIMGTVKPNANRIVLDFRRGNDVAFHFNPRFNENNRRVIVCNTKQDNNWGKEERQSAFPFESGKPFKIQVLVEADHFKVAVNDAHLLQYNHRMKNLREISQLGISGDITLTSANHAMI
T3 sequence (P16110 whole entry): as above

Molecule	IgG binding to murine Gal3 (m-Gal3-FL) by ELISA (murine Gal3 (m-Gal3-FL))	hGal3 EC50 (Hu-Gal3-FL)	mGal3 EC50 (m-Gal3-FL)	HOCI-induced increase in skin thickness ([1]; 42 days, antibody 20 mg/kg s.c., TD139 0.5 mg/kg intratracheal, vs HOCI group, FIG. 7A)	day from which reduction of skin thickness was significant ([1]; sustained effect until day 42)	lung collagen levels ([2]; day 42, FIG. 8A)	skin collagen levels ([2]; day 42, vs HOCI group, FIG. 8B)	plasma IL-6 levels (plasma IL-6)	plasma IL-5 levels (plasma IL-5)	plasma Gal3 levels (plasma Gal3)	reduction of median Time to baseline (TTB) ([3]; median TTB 20 days for untreated bleomycin group, FIG. 13)	reduction of median Time to weight growth (TWG) ([3]; median TWG 10 days for untreated bleomycin group, FIG. 13)	mean percent weight increase on day 21 compared to day minus 1 ([3]; untreated bleomycin group +1.9%, control mice 6.4%)	frequency of animals with fibrosis score of 2 ([4]; day 21, 7.4% in untreated bleomycin group)	frequency of animals with fibrosis score of 3 ([4]; day 21, 43.2% for bleo group)	frequency of animals with fibrosis score of 4 ([4]; day 21, 44.4% in bleo group)	neutrophils counts in BALF (rat model of ARDS [5])	total BALF protein (rat model of ARDS [6])	TNF alpha plasma levels (plasma TNF alpha)
E12: anti-Gal3 monoclonal antibody, IgG1 format; VH SEQ ID NO 56, VL SEQ ID NO 57 (antibody, V domains shown) VH: EVQLVESGGSLVKPGGSLRLSCAASGFTFSNYAMNWVRQAPGKGLEWISSIYGSSRSIYYADFVKGRFTISRDNAKNSLYLQMNSLRAEDTAVYYCVRSNNAGMDVWGRGTLVTVSS VL: QSVLTQPASVSGSPGQSITISCAGTSSDVGGYYDVSWYQQHPGKAPKLMIYYDSYRPSGVSNRFSGSKSGNTASLTISGLQAEDEADYYCSSYTSYSTRVFGGGTKLEIK	much lower on the m-Gal3 than on the Hu-Gal3-FL and Hu-Gal3-CRD	too high to be determined	too high to be determined	–	–	–	–	–	–	–	–	–	–	–	–	–	–	–	–
D11: anti-Gal3 monoclonal antibody, IgG1 format; VH SEQ ID NO 40, VL SEQ ID NO 41 (antibody, V domains shown, IgG1 constant region) VH: EVQLVESGGSLVKPGGSLRLSCAASGFTFSNYNMNWVRQAPGKGLEWISSIYGSSRYIYYADFVKGRFTISRDNAKNSLYLQMNSLRAEDTAVYYCVRSSYGGMDVWGRGTLVTVSS VL: QSVLTQPASVSGSPGQSITISCAGTSSDVGGSYNVAWYQQHPGKAPKLMIYYDSYRPSGVSNRFSGSKSGNTASLTISGLQAEDEADYYCSSYTGYSTRVFGGGTKLEIK	–	–	–	significantly reduced	21 days	restored lung collagen levels to those of control mice	significantly reduced	significantly decreased the plasma IL-6 levels to values similar to those of control mice	decreased significantly	restored the plasma Gal3 levels to values similar to those of the control group	2.7 days	1.3 days	4.4%	17.8%	61.1%	20%	also decreased	also decreased	also decreased, displaying an intermediary profile
